The target in series [1] is PaCsl4-exosome (Pyrococcus abyssi).
In series [2] the target is PaRrp4-exosome (Pyrococcus abyssi) (UniProt Q9V120).
The target of series [3] is RNase PH ring (PaRrp41-PaRrp42 complex) (Pyrococcus abyssi).
Series [4] concerns the target PaCsl4-exosome (Pyrococcus abyssi). This is another data set of the same source.
In series [5] the target is PaRrp4-exosome (Pyrococcus abyssi) (UniProt Q9V120). This is another data set of the same source.
Series [6] concerns the target T1, PaSBDS (Pyrococcus abyssi, UniProt Q9V121 1-236). As to the kind of experiment: EMSA; 50-400 pmol; 1 pmol RNA in 20 ul; 20 mM Tris-HCl pH 8.0, 20 mM KCl, 2 mM MgCl2, 1 mM DTT, 100 ug/ml BSA, 0.8 U RNasin (or conditions of earlier work, ref 21), 37 C, 30 min. To be noted: protein: recombinant, tags: pET-28a vector, Ni-NTA purified (His tag), label: 5'-32P. On the technique in general: In EMSA bound probe runs differently from free probe, usually more slowly.

In series [7] the target is T2, PaRrp41;PaRrp42;PaCsl4 (Pyrococcus abyssi;Pyrococcus …, UniProt Q9V119;Q9V118;Q9V2M2 1-249;1-274;1-199, ||).
T2 sequence 1: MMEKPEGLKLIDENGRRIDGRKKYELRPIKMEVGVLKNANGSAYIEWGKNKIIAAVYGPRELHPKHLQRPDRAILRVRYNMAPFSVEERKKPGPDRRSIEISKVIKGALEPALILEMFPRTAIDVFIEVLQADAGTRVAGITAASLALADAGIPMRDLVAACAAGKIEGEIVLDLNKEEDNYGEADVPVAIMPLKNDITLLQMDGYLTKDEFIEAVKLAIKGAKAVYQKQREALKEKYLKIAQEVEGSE
T2 sequence 2: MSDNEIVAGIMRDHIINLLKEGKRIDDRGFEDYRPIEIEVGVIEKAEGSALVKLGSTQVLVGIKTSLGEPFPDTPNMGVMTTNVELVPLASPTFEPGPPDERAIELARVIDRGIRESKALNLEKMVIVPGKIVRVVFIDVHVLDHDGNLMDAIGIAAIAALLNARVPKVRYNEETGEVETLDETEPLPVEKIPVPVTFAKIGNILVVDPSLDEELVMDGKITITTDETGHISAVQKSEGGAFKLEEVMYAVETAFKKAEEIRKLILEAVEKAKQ
T2 sequence 3: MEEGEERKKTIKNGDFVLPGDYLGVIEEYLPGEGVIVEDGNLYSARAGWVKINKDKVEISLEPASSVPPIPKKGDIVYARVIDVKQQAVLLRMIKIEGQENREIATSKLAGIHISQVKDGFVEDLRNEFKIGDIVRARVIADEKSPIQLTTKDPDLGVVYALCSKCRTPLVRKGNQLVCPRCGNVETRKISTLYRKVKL
Nature of the series: EMSA; 10 mM NaH2PO4, 65 C, 15 min; 1 pmol RNA in 20 ul; 20 mM Tris-HCl pH 8.0, 20 mM KCl, 2 mM MgCl2, 1 mM DTT, 100 ug/ml BSA, 0.8 U RNasin (or conditions of earlier work, ref 21), 37 C, 30 min. Particulars: protein: recombinant;recombinant;recombinant; tags: pET29a vector;pAE vector;pET28a vector; chain copies: 3;3;3; label: 5'-32P; can form intra- and inter-strand base pairs of low stability.

Series [8] concerns the target T3, PaRrp41;PaRrp42;PaRrp4 (Pyrococcus abyssi;Pyrococcus …, UniProt Q9V119;Q9V118;Q9V120 1-249;1-274;1-265, ||).
T3 sequence 1: T2 sequence 1
T3 sequence 2: T2 sequence 2
T3 sequence 3: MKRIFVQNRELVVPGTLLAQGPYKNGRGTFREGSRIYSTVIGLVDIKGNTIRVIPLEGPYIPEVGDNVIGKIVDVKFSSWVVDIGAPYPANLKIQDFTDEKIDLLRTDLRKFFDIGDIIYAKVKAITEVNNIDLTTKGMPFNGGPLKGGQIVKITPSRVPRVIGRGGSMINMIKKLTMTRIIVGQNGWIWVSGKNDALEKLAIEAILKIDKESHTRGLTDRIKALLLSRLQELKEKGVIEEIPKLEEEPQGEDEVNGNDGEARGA
Described as above. Particulars: protein: recombinant;recombinant;recombinant; tags: pET29a vector;pAE vector;; chain copies: 3;3;3; label: 5'-32P; can form intra- and inter-strand base pairs of low stability.

Series [9] concerns the target T4, PaRrp41;PaRrp42 (Pyrococcus abyssi;Pyrococcus abyssi, UniProt Q9V119;Q9V118 1-249;1-274, |).
T4 sequence 1: T2 sequence 1
T4 sequence 2: T2 sequence 2
As to the kind of experiment: EMSA; 10 mM NaH2PO4, 65 C, 15 min; less efficient than holo-exosomes; 1 pmol RNA in 20 ul; 20 mM Tris-HCl pH 8.0, 20 mM KCl, 2 mM MgCl2, 1 mM DTT, 100 ug/ml BSA, 0.8 U RNasin (or conditions of earlier work, ref 21), 37 C, 30 min. To be noted: protein: recombinant;recombinant; tags: pET29a vector;pAE vector; chain copies: 3;3; label: 5'-32P; can form intra- and inter-strand base pairs of low stability.

Series [10] has as its target T2, PaRrp41;PaRrp42;PaCsl4. As to the kind of experiment: EMSA; no phosphate added; 1 pmol RNA in 20 ul; 20 mM Tris-HCl pH 8.0, 20 mM KCl, 2 mM MgCl2, 1 mM DTT, 100 ug/ml BSA, 0.8 U RNasin (or conditions of earlier work, ref 21), 37 C, 30 min. Particulars: protein: recombinant;recombinant;recombinant; tags: pET29a vector;pAE vector;pET28a vector; chain copies: 3;3;3; label: 5'-32P; single strand.

The target of series [11] is T1, PaSBDS. Nature of the series: EMSA; 200 pmol; smear, low stability complex; 1 pmol RNA in 20 ul; 20 mM Tris-HCl pH 8.0, 20 mM KCl, 2 mM MgCl2, 1 mM DTT, 100 ug/ml BSA, 0.8 U RNasin (or conditions of earlier work, ref 21), 37 C, 30 min. Particulars: protein: recombinant; tags: pET-28a vector, Ni-NTA purified (His tag); label: 5'-32P; single strand.
The target in series [12] is T3, PaRrp41;PaRrp42;PaRrp4. Nature of the series: EMSA; no phosphate added; 9-fold vs PaCsl4-exosome; 1 pmol RNA in 20 ul; 20 mM Tris-HCl pH 8.0, 20 mM KCl, 2 mM MgCl2, 1 mM DTT, 100 ug/ml BSA, 0.8 U RNasin (or conditions of earlier work, ref 21), 37 C, 30 min. To be noted: protein: recombinant;recombinant;recombinant; tags: pET29a vector;pAE vector;; chain copies: 3;3;3; label: 5'-32P; single strand.

For series [13], the target named is T4, PaRrp41;PaRrp42. As to the kind of experiment: EMSA; no phosphate added; PaRrp4-exosome binds 3-fold more efficiently; some RNA degradation; 1 pmol RNA in 20 ul; 20 mM Tris-HCl pH 8.0, 20 mM KCl, 2 mM MgCl2, 1 mM DTT, 100 ug/ml BSA, 0.8 U RNasin (or conditions of earlier work, ref 21), 37 C, 30 min. Particulars: protein: recombinant;recombinant; tags: pET29a vector;pAE vector; chain copies: 3;3; label: 5'-32P; single strand.

The values that follow come from publication PMC2890523, “Identification of archaeal proteins that affect the exosome function in vitro”.

Turning to PaNip7 (natural protein), the decrease in poly-rA binding by the exosome complex (EMSA, 1-20 pmol complex) in the presence of 100 pmol PaNip7 worked out at 20 fold in [1], 40 fold in series [2] and 3 fold in series [3]. In addition, the inhibition of the RNase activity on 14-mer poly-rA (1, 5 or 10 pmol complex, 65°C, 10 mM NaH2PO4) by 100 pmol PaNip7 worked out at 6.1 fold in series [4] and 3.8 fold in series [5].
As for CCCCCCCCCCCCC (ssRNA) [poly-rC 13-mer], the binding result with PaSBDS [6] (single strand) was “no binding”.
As to UUAUUAUUUAUUUAUUAUUUA (ssRNA) [poly-rAU 21-mer], the binding result with PaSBDS [6] (can form intra- and inter-strand base pairs of low stability) is given as “binds”; with PaRrp41;PaRrp42;PaCsl4 [7] it was “binds”; with PaRrp41;PaRrp42;PaRrp4 [8], “binds”; with PaRrp41;PaRrp42 [9] it was “binds”.
In the case of AAAAAAAAAAAAAA (ssRNA) [poly-rA 14-mer], the binding signal with PaRrp41;PaRrp42;PaCsl4 [10] was 9 fold less efficient than PaRrp4-exosome; with PaRrp41;PaRrp42;PaRrp4 [12], 3 fold vs RNase PH ring. In addition, the binding result with PaSBDS [11] and with PaRrp41;PaRrp42 [13] was “binds” throughout.
